Molecular target: T1, glycoprotein hormone beta 5 (GPHB5) (human, UniProt Q86YW7 25-130, one N-linked glycosylation (position not given))
T1 construct: Secreted from the CHO 180 cell line co-expressing GPHA2 and GPHB5; also called beta subunit of CGH
T1 sequence: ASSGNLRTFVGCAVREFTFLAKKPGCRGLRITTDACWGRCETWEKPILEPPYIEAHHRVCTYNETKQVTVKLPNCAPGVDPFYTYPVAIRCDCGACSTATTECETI
Assay: co-expression in CHO cells; secreted heterodimer

B1: glycoprotein hormone alpha2 (GPHA2) (ligand)
chain: QEAVIPGCHLHPFNVTVRSDRQGTCQGSHVAQACVGHCESSAFPSRYSVLVASGYRHNITSVSQCCTISGLKKVKVQLQCVGSRREELEIFTARACQCDMCRLSRY
modifications: two N-linked glycosylations (positions not given)
notes: Secreted from the CHO 180 cell line co-expressing GPHA2 and GPHB5; also called Zsig51; alpha subunit of CGH
binding result: binds
